Test [1] has as its target HIV-1 AD8 gp120, wild type (HIV-1 (AD8 strain)). Put plainly: 35S pulse-chase labelling, immunoprecipitation, gp120-shedding index.
For test [2], the target named is HIV-1 AD8 envelope glycoprotein (Env), wild type (HIV-1 (AD8 strain)). Kind of test: cell-based or functional assay.
Test [3] deals with HIV-1 AD8 Env ΔN139INN/K601N (HIV-1 (AD8 strain)). Put plainly: cell-based or functional assay.
The next test deals with HIV-1AD8 WL/KH virus. Put plainly: Neutralization assay in TZM-bl cells, WL/KH virus. In kind it is cell-based.
For another test, the system named is HIV-1AD8 WL/KH/DE virus. Kind of test: Neutralization assay in TZM-bl cells, WL/KH/DE virus. In kind it is cell-based.
Test [4] concerns the target HIV-1 AD8 gp120 T138N (HIV-1 (AD8 strain)). Kind of test: 35S pulse-chase labelling, immunoprecipitation, gp120-shedding index.
The subject of the next test is HIV-1. Conditions: monotherapy, HIV-1 infected individuals; cited from earlier work.

In the case of HIV-1 AD8 gp41 K601N, in test [1], the gp120 shedding into culture supernatant, fold with respect to WT stood at 4.4 fold.
Regarding C34 fusion inhibitor peptide, the IC50, inhibition of Env-mediated cell-cell fusion by C34 (luciferase) in test [2] and in test [3] was 0.1 µM each time.
For the substance maraviroc, the “neutralization compared to the WT” value in the test on HIV-1AD8 WL/KH virus and with HIV-1AD8 WL/KH/DE virus was “to similar extents” each time.
HIV-1 AD8 gp41 K601D: the improvement of gp120-gp41 association, fold with respect to K601D in test [4] turned out to be 2 fold. In test [1], this substance displayed a gp120 shedding into culture supernatant, fold with respect to WT of 6.8 fold.
On to “Ibalizumab: αCD4bs antibody used as monotherapy of HIV-1 infected individuals”, for which, in the test with HIV-1, the viral load entry is on record as “transient drop in viral load to nadir levels followed by a rebound in viral titre”.
